The values that follow come from PMC7982548 (The Journal of Biological Chemistry, 2005).

Like-named read-outs stand apart in the source and are kept apart here.

For data set [1], the target named is 6-amino acid model peptide substrate ([…]). Put plainly: SPR.
Data set [2] concerns the molecule itself. Put plainly: ITC.
Data set [3] concerns the molecule itself. In words: SEC. A general note: In gel filtration, larger molecules generally elute earlier.
Data set [4] deals with the molecule itself. Put plainly: ITC. This is another data set of the same source. A general note: Isothermal titration calorimetry measures the heat released or taken up as one component is titrated into another.

B1: full-length SARS coronavirus 3C-like proteinase (enzyme)
chain: SGFRKMAFPSGKVEGCMVQVTCGTTTLNGLWLDDTVYCPRHVICTAEDMLNPNYEDLLIRKSNHSFLVQAGNVQLRVIGHSMQNCLLRLKVDTSNPKTPKYKFVRIQPGQTFSVLACYNGSPSGVYQCAMRPNHTIKGSFLNGSCGSVGFNIDYDCVSFCYMHHMELPTGVHAGTDLEGKFYGPFVDRQTAQAAGTDTTITLNVLAWLYAAVINGDRWFLNRFTTTLNDFNLVAMKYNYEPLTQDHVDILGPLSAQTGIAVLDMCAALKELLQNGMNGRTILGSTILEDEFTPFDVVRQCSGVTFQ
For the molecule B1, the Kd in data set [1] is around 152 µM. In data set [2], this molecule returned a dissociation constant (Kd) of 227 ± 34 µM and a dH of -34.7 ± 0.431 kJ/mol.

B2: N-terminal deleted SARS 3CL^pro (residues 8-303) (domain or fragment)
chain: FPSGKVEGCMVQVTCGTTTLNGLWLDDTVYCPRHVICTAEDMLNPNYEDLLIRKSNHSFLVQAGNVQLRVIGHSMQNCLLRLKVDTSNPKTPKYKFVRIQPGQTFSVLACYNGSPSGVYQCAMRPNHTIKGSFLNGSCGSVGFNIDYDCVSFCYMHHMELPTGVHAGTDLEGKFYGPFVDRQTAQAAGTDTTITLNVLAWLYAAVINGDRWFLNRFTTTLNDFNLVAMKYNYEPLTQDHVDILGPLSAQTGIAVLDMCAALKELLQNGMNGRTILGSTILEDEFTPFDVVRQCSGVTFQ
As to B2, in data set [3], the “dimer/monomer ratio at 1 mg/ml” value was 0.65, the “dimer/monomer ratio at 2 mg/ml” value was determined as 0.66 and the “dimer/monomer ratio at 7 mg/ml” value was 0.8. In data set [4], the equilibrium dissociation constant (Kd) was 261 ± 15 µM. Besides, in data set [2], the affinity, expressed as Kd, was 262 ± 15 µM and the dH was -28.8 ± 1.05 kJ/mol.

What is called Kd is a measure of binding affinity in units of concentration.
